Series [1] concerns the target T1, NaPi2b expressed on IGROV-1 cells (Homo sapiens, UniProt O95436).
T1 construct: IGROV-1 cells express endogenous NaPi2b at a high level; endogenous in cells; host or cells: IGROV-1
T1 sequence (O95436 1-690): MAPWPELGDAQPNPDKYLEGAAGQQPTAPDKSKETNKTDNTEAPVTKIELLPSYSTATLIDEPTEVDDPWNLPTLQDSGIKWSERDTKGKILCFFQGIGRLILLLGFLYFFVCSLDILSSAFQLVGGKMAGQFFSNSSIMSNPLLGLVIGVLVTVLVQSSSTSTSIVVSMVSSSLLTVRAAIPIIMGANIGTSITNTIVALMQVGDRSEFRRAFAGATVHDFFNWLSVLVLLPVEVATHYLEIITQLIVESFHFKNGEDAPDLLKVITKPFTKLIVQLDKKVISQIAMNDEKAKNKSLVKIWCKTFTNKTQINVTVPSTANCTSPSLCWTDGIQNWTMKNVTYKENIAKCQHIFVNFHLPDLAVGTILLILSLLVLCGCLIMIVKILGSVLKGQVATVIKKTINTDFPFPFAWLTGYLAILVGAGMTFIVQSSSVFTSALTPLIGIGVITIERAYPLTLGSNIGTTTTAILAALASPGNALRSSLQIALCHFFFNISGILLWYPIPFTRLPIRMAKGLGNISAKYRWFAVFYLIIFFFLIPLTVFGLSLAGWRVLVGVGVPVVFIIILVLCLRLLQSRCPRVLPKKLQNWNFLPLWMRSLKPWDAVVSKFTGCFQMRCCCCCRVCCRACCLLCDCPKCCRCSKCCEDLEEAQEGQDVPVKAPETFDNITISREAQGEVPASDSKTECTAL
Briefly: Cellular binding of bivalent antibodies to IGROV-1 cells by flow cytometry (Example 13). Conditions: IGROV-1, 24 hours at 4° C.; NB = no cellular binding. As for the experimental part: IGROV-1 cells express endogenous NaPi2b at a high level.
Briefly, cells were seeded at 50,000 cells/well in conical-bottom 96-well plates and treated with test antibody for 24 hours at 4° C. to prevent internalization. Palivizumab (anti-RSV antibody, v22277) was included as a negative control. […] Following incubation, cells were washed and stained with anti-Human IgG Fc AF647 conjugate (Jackson Immuno Research Labs, West Grove, PA; Cat. No. 109-605-098) at 4° C. for 30 min. Following incubation and washing, fluorescence was detected by flow cytometry on a BD LSRFortessa™ Cell Analyzer (BD Biosciences, Franklin Lake, NJ) with 1,000 minimum events collected per well. The AF647/APC-A GeoMean (fluorescence signal geometric mean, proportional to anti-Human AF647 binding) was calculated for the live cell population using FlowJo™ Version 10.8.1 (BD Biosciences, Franklin Lake, NJ) and plotted for each test antibody using GraphPad Prism Version 9 (GraphPad Software, San Diego, CA).
In general terms: In flow cytometry, cells or beads pass a laser one at a time.

Series [2] is described as follows: Thermal stability by differential scanning calorimetry (DSC). The conditions noted are these: 0.4 mg/mL in PBS, scan 20° C. to 100° C. at 60° C./hr. Format: physicochemical. As for the experimental part: The thermal stability of the humanized antibody variants was assessed by differential scanning calorimetry (DSC) as described below.
400 μL of purified samples primarily at concentrations of 0.4 mg/mL in PBS were used for DSC analysis with a VP-Capillary DSC (Malvern Panalytical Inc., Westborough, MA). At the start of each DSC run, 5 buffer blank injections were performed to stabilize the baseline, and a buffer injection was placed before each sample injection for referencing. Each sample was scanned from 20° C. to 100° C. at a 60° C./hr rate, with low feedback, 8 sec filter, 3 min pre-scan thermostat, and 70 psi nitrogen pressure. The resulting thermograms were referenced and analyzed using Origin 7 software (OriginLab Corporation, Northampton, MA) to determine melting temperature (Tm) as an indicator of thermal stability.
On the technique in general: In DSC, transitions show as peaks or steps in heat flow.

B1: v29451: humanized anti-NaPi2b IgG1/kappa antibody H2L3; VH SEQ ID NO:25, VL SEQ ID NO:30 (antibody, V domains shown)
VH: QVQLVQSGAEVKKPGASVKVSCKASGFTFTSYNVHWVRQAPGQGLEWIAAISPGNGDLSYAQKFQGRVTMTVDTSTSTVYMELSSLRSEDTAVYYCARGRTGMGAVDYWGQGTLVTVSS
VL: DVQMTQSPSSLSASVGDRVTITCRASQDVYSYLNWYQQKPGKAVKLLIYYTSRLQSGVPSRFSGSGSGTDYTLTISSLQPEDIATYYCQQYNIFPWTFGQGTKLEIK
modifications: v29451, v29455, v29459 VH (H2); v29449, v29450, v29451, v29452 VL (L3)
Consider B1, for which, in series [1], the “Bmax (MFI)” value was 46,170 MFI and the “Curve Hill Slope (h)” value is 1.1. Moreover, the “Fab Tm” value in series [2] amounted to 83.0 °C.

B2: v29449: humanized anti-NaPi2b IgG1/kappa antibody H4L3; VH SEQ ID NO:27, VL SEQ ID NO:30 (antibody, V domains shown)
VH: QVQLVQSGAEVKKPGASVKMSCKASGFTFTSYNVHWVRQAPGQGLEWIAAISPGNGDLSYAQKFQGRATLTVDRSTSTAYMELSSLRSEDTAVYYCARGRTGMGAVDYWGQGTLVTVSS
VL: DVQMTQSPSSLSASVGDRVTITCRASQDVYSYLNWYQQKPGKAVKLLIYYTSRLQSGVPSRFSGSGSGTDYTLTISSLQPEDIATYYCQQYNIFPWTFGQGTKLEIK
modifications: v29449, v29453, v29457 VH (H4); v29449, v29450, v29451, v29452 VL (L3)
In the case of B2, in series [1], the “Bmax (MFI)” value is recorded as 44,460 MFI and the “Curve Hill Slope (h)” value came out at 1.3. Moreover, in series [2], the “Fab Tm” value came to 80.0 °C.

B3: v29453: humanized anti-NaPi2b IgG1/kappa antibody H4L2; VH SEQ ID NO:27, VL SEQ ID NO:29 (antibody, V domains shown)
VH: QVQLVQSGAEVKKPGASVKMSCKASGFTFTSYNVHWVRQAPGQGLEWIAAISPGNGDLSYAQKFQGRATLTVDRSTSTAYMELSSLRSEDTAVYYCARGRTGMGAVDYWGQGTLVTVSS
VL: DVQMTQSPSSLSASVGDRVTITCRASQDVYSYLNWYQQKPGKAVKLLIYYTSRLQSGVPSRFSGSGSGTDYTLTISSLQPEDFATYYCQQYNIFPWTFGQGTKLEIK
modifications: v29449, v29453, v29457 VH (H4); v29453, v29454, v29455, v29456 VL (L2)
Consider B3, for which, in series [1], the “Bmax (MFI)” value is listed as 44,480 MFI and the “Curve Hill Slope (h)” value was found to be 1.2. Besides, the “Fab Tm” value in series [2] was 78.9 °C.

B4: v29460: humanized anti-NaPi2b IgG1/kappa antibody H1L1; VH SEQ ID NO:24, VL SEQ ID NO:28 (antibody, V domains shown)
VH: QVQLVQSGAEVKKPGASVKVSCKASGFTFTSYNVHWVRQAPGQGLEWMGAISPGNGDLSYAQKFQGRVTMTRDTSTSTVYMELSSLRSEDTAVYYCARGRTGMGAVDYWGQGTLVTVSS
VL: DIQMTQSPSSLSASVGDRVTITCRASQDVYSYLNWYQQKPGKAPKLLIYYTSRLQSGVPSRFSGSGSGTDFTLTISSLQPEDFATYYCQQYNIFPWTFGQGTKLEIK
modifications: v29452, v29456, v29460 VH (H1); v29457, v29458, v29459, v29460 VL (L1)
For B4, in series [1], the “Bmax (MFI)” value is 40,071 MFI and the “Curve Hill Slope (h)” value was 1.2. In series [2], the “Fab Tm” value is 80.3 °C.

B5: v29454: humanized anti-NaPi2b IgG1/kappa antibody H3L2; VH SEQ ID NO:26, VL SEQ ID NO:29 (antibody, V domains shown)
VH: QVQLVQSGAEVKKPGASVKMSCKASGFTFTSYNVHWVRQAPGQGLEWIAAISPGNGDLSYAQKFQGRATLTVDTSTSTAYMELSSLRSEDTAVYYCARGRTGMGAVDYWGQGTLVTVSS
VL: DVQMTQSPSSLSASVGDRVTITCRASQDVYSYLNWYQQKPGKAVKLLIYYTSRLQSGVPSRFSGSGSGTDYTLTISSLQPEDFATYYCQQYNIFPWTFGQGTKLEIK
modifications: v29450, v29454, v29458 VH (H3); v29453, v29454, v29455, v29456 VL (L2)
As to B5, in series [1], the “Bmax (MFI)” value is 42,278 MFI and the “Curve Hill Slope (h)” value is reported as 1.0. Besides, the “Fab Tm” value in series [2] was 79.7 °C.

B6: v29459: humanized anti-NaPi2b IgG1/kappa antibody H2L1; VH SEQ ID NO:25, VL SEQ ID NO:28 (antibody, V domains shown)
VH: QVQLVQSGAEVKKPGASVKVSCKASGFTFTSYNVHWVRQAPGQGLEWIAAISPGNGDLSYAQKFQGRVTMTVDTSTSTVYMELSSLRSEDTAVYYCARGRTGMGAVDYWGQGTLVTVSS
VL: DIQMTQSPSSLSASVGDRVTITCRASQDVYSYLNWYQQKPGKAPKLLIYYTSRLQSGVPSRFSGSGSGTDFTLTISSLQPEDFATYYCQQYNIFPWTFGQGTKLEIK
modifications: v29451, v29455, v29459 VH (H2); v29457, v29458, v29459, v29460 VL (L1)
Take B6: in series [1], the “Bmax (MFI)” value is recorded as 40,941 MFI and the “Curve Hill Slope (h)” value is listed as 1.2. In addition, in series [2], the “Fab Tm” value is 83.1 °C.

B7: v29455: humanized anti-NaPi2b IgG1/kappa antibody H2L2; VH SEQ ID NO:25, VL SEQ ID NO:29 (antibody, V domains shown)
VH: QVQLVQSGAEVKKPGASVKVSCKASGFTFTSYNVHWVRQAPGQGLEWIAAISPGNGDLSYAQKFQGRVTMTVDTSTSTVYMELSSLRSEDTAVYYCARGRTGMGAVDYWGQGTLVTVSS
VL: DVQMTQSPSSLSASVGDRVTITCRASQDVYSYLNWYQQKPGKAVKLLIYYTSRLQSGVPSRFSGSGSGTDYTLTISSLQPEDFATYYCQQYNIFPWTFGQGTKLEIK
modifications: v29451, v29455, v29459 VH (H2); v29453, v29454, v29455, v29456 VL (L2)
In the case of B7, in series [1], the “Bmax (MFI)” value is given as 41,917 MFI and the “Curve Hill Slope (h)” value is given as 1.1. Also, in series [2], the “Fab Tm” value worked out at 81.5 °C.

B8: v29457: humanized anti-NaPi2b IgG1/kappa antibody H4L1; VH SEQ ID NO:27, VL SEQ ID NO:28 (antibody, V domains shown)
VH: QVQLVQSGAEVKKPGASVKMSCKASGFTFTSYNVHWVRQAPGQGLEWIAAISPGNGDLSYAQKFQGRATLTVDRSTSTAYMELSSLRSEDTAVYYCARGRTGMGAVDYWGQGTLVTVSS
VL: DIQMTQSPSSLSASVGDRVTITCRASQDVYSYLNWYQQKPGKAPKLLIYYTSRLQSGVPSRFSGSGSGTDFTLTISSLQPEDFATYYCQQYNIFPWTFGQGTKLEIK
modifications: v29449, v29453, v29457 VH (H4); v29457, v29458, v29459, v29460 VL (L1)
For the molecule B8, in series [1], the “Bmax (MFI)” value is reported as 44,539 MFI and the “Curve Hill Slope (h)” value worked out at 1.0. Moreover, the “Fab Tm” value in series [2] turned out to be 80.5 °C.

B9: v29458: humanized anti-NaPi2b IgG1/kappa antibody H3L1; VH SEQ ID NO:26, VL SEQ ID NO:28 (antibody, V domains shown)
VH: QVQLVQSGAEVKKPGASVKMSCKASGFTFTSYNVHWVRQAPGQGLEWIAAISPGNGDLSYAQKFQGRATLTVDTSTSTAYMELSSLRSEDTAVYYCARGRTGMGAVDYWGQGTLVTVSS
VL: DIQMTQSPSSLSASVGDRVTITCRASQDVYSYLNWYQQKPGKAPKLLIYYTSRLQSGVPSRFSGSGSGTDFTLTISSLQPEDFATYYCQQYNIFPWTFGQGTKLEIK
modifications: v29450, v29454, v29458 VH (H3); v29457, v29458, v29459, v29460 VL (L1)
Consider B9, for which, in series [1], the “Bmax (MFI)” value is on record as 40,793 MFI and the “Curve Hill Slope (h)” value is 1.1. The “Fab Tm” value in series [2] was 81.6 °C.

Values taken from patent US20250277030A1, “ANTI-NAPI2B ANTIBODIES AND METHODS OF USE” (Zymeworks BC Inc., priority 2022, published 2025).
